Reference: patent US20220243360A1 (ROCHE SEQUENCING SOLUTIONS, published 2022)
No end group written: not given here.

T1: biotin-labeled DsbA (UniProt P0AEG4 20-208, limits assumed, biotin-labeled)
T1 sequence (looked up): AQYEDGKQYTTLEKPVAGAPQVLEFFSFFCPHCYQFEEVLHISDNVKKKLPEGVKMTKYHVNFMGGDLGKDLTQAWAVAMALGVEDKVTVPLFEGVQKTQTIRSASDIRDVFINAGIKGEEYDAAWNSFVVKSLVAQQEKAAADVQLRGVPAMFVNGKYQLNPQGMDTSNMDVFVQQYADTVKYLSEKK

B1: PSPWATCDF-NH2 (peptide)
peptide: PSPWATCDF-NH2
B2: HNWAAQCLKDQAKL-NH2 (peptide)
peptide: HNWAAQCLKDQAKL-NH2
B3: VIGQCLKN-NH2 (peptide)
peptide: VIGQCLKN-NH2
B4: YVYGMCWKDYTDTDK-NH2 (peptide)
peptide: YVYGMCWKDYTDTDK-NH2
B5: VILGQCLKQ-NH2 (peptide)
peptide: VILGQCLKQ-NH2
B6: HNWAAQCLNPDQAKL-NH2 (peptide)
peptide: HNWAAQCLNPDQAKL-NH2
B7: SIIGMCYKKDPS-NH2 (peptide)
peptide: SIIGMCYKKDPS-NH2
B8: YVYGMCWKDYTTDK-NH2 (peptide)
peptide: YVYGMCWKDYTTDK-NH2
B9: VIVGQCLKK-NH2 (peptide)
peptide: VIVGQCLKK-NH2
B10: DFWHGETCKVTQFDQ-NH2 (peptide)
peptide: DFWHGETCKVTQFDQ-NH2
B11: DFWHGEQCKVTQFDQ-NH2 (peptide)
peptide: DFWHGEQCKVTQFDQ-NH2
B12: DsbA_1_WT (peptide)
peptide: DFWHGDTCKVTQFDQ-NH2
B13: NDYQYKGQQCLDPKY-NH2 (peptide)
peptide: NDYQYKGQQCLDPKY-NH2
B14: WQYENWAITKWQCVK-NH2 (peptide)
peptide: WQYENWAITKWQCVK-NH2
B15: SIIGQCYKKDPSQAT-NH2 (peptide)
peptide: SIIGQCYKKDPSQAT-NH2

These binders were tested against T1, biotin-labeled DsbA (assay: Biacore X100 per the table title, biotin-DsbA on streptavidin chip; paragraph 121 says Biacore or ITC (Duprez 2015)).
B1 showed a Kd of 2900 nM.

What follows are binders tested against T1, biotin-labeled DsbA (assay: peptide microarray fluorescence (Cy5), peptide on the array, biotin-DsbA in solution).
B2 was tested, and the “SIGNAL INTENSITY” value was 1760.
In the case of B3, the “SIGNAL INTENSITY” value is reported as 588.
With B1 the “SIGNAL INTENSITY” value was 82.
For B4, the “SIGNAL INTENSITY” value was 2110.
For B5, the “SIGNAL INTENSITY” value was 965.
B6 was tested, and the “SIGNAL INTENSITY” value was 2640.
For B7, the “SIGNAL INTENSITY” value was 1360.
For B8, the “SIGNAL INTENSITY” value was 2300.
With B9 the “SIGNAL INTENSITY” value was 282.
For B10, the “SIGNAL INTENSITY” value was 1800.
B11 was tested, and the “SIGNAL INTENSITY” value was 4590.
For B12, the “SIGNAL INTENSITY” value was 1750.
For B13, the “SIGNAL INTENSITY” value was 3620.
For B14, the “SIGNAL INTENSITY” value was 1430.

The binders below were run against T1, biotin-labeled DsbA (assay: SPR, Biacore X100, biotin-DsbA on streptavidin chip, peptide as analyte).
Method: Kinetic analysis of the interaction between the discovered peptides and DsbA was performed using a Biacore XI00. Biotin-labeled DsbA (1 uM) was immobilized on streptavidin coated chip (GE Healthcare) to a target level of 1,000 response units in HBS-P+. […] Fourteen dilutions of peptide from 5000 nM to 0.6 nM in HBS-P+were flowed over the DsbA coated chip in triplicate with a contact time of 120 seconds and a dissociation time of 600 seconds. […] All peptides were amidated on the C-terminus.
Binder B2 has a Kd of 88 nM.
B3 was tested, and the Kd was 623 nM.
B4 gave a Kd of 116 nM.
B5 showed a Kd of 517 nM.
For B15, the Kd was 553 nM.
B6 was tested, and the Kd was 57 nM.
Binder B7 has a Kd of 188 nM.
B8 gave a Kd of 78 nM.
B9 showed a Kd of 622 nM.
For B10, the Kd was 84 nM.
Work on B11 yielded a Kd of 53 nM.
B12 was tested, and the Kd was 208 nM.
B13 was tested, and the Kd was 48 nM.
Work on B14 yielded a Kd of 83 nM.
